Publication PMC12469269, “Investigating SMR Peptide Interactions with Breast Cancer-Associated Proteins” (International Journal of Molecular Sciences, 2025)

Experiments:
Assay in all cases: SPR
Conditions in all cases: both partners purified
[1] = biological target: T1, Recombinant Human GRP75/HSPA9B/Mortalin His Protein (human, UniProt P38646 47-679)
T1 construct: source: bought: Novus Biologicals, LLC/R&D Systems

[2] = biological target: T2, Recombinant Human Vimentin Protein, CF (human, UniProt P08670 1-466)
T2 construct: source: bought: Novus Biologicals, LLC/R&D Systems
T2 sequence (P08670 whole entry): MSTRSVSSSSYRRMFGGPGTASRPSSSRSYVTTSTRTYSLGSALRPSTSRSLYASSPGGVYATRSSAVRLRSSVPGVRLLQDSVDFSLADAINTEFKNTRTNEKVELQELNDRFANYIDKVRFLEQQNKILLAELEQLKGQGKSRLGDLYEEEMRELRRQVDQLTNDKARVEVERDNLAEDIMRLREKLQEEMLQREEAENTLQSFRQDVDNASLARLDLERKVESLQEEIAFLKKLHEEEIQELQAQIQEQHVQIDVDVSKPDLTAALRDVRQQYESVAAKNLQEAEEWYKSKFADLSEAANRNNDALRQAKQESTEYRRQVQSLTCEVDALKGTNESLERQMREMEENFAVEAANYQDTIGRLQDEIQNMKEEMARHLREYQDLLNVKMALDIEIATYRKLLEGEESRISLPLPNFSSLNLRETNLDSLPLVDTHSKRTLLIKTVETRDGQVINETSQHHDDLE

[3] = biological target: T1, Recombinant Human GRP75/HSPA9B/Mortalin …; remark: listed apart in the source
[4] = biological target: T2, Recombinant Human Vimentin Protein, CF; remark: listed apart in the source

T1 sequence (P38646 47-679): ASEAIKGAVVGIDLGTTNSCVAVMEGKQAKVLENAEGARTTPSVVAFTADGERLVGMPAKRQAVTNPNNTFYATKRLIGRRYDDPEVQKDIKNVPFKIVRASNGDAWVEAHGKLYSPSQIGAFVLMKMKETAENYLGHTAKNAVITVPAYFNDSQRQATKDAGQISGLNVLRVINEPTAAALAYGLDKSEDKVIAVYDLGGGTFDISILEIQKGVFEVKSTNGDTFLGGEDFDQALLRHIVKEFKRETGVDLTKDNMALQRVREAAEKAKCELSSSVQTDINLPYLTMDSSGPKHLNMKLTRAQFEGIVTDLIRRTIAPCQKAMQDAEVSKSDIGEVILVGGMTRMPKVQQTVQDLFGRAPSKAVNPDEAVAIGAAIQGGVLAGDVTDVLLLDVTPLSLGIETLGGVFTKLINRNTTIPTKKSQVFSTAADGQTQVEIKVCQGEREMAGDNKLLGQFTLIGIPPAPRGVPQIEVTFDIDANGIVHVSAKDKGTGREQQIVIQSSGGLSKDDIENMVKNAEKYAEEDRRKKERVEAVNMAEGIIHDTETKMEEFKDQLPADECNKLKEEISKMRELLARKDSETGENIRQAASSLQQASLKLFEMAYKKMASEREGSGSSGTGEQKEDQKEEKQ

B1: HIV-1 Nef protein (natural protein)
chain: MGGKWSKSSVVGWPTVRERMRRAEPAADGVGAASRDLEKHGAITSSNTAATNAACAWLEAQEEEEVGFPVTPQVPLRPMTYKAAVDLSHFLKEKGGLEGLIHSQRRQDILDLWIYHTQGYFPDWQNYTPGPGVRYPLTFGWCYKLVPVEPDKVEEANKGENTSLLHPVSLHGMDDPEREVLEWRFDSRLAFHHVARELHPEYFKNC
notes: also called full Nef protein
Binder B1 has a Kd [1] of 3.16 nM, a Kd [2] of 0.75 nM and a Kd [3] of 2.1 nM. It also gave a Kd [4] of 0.2 nM.
